{"source": "patent CN115232213A", "about": "(HEFEI TIANGANG IMMUNOLOGY PHARMACEUTICAL CO LTD, dated 2022)", "biological_target": "T1, TROP2蛋白 (TROP2 protein, SEQ ID NO:27) expressed on transduced cells (human, UniProt P09758 27-323)", "T1 construct": "also called CHO-K1-TROP2细胞; A375-TROP2细胞", "T1 sequence": "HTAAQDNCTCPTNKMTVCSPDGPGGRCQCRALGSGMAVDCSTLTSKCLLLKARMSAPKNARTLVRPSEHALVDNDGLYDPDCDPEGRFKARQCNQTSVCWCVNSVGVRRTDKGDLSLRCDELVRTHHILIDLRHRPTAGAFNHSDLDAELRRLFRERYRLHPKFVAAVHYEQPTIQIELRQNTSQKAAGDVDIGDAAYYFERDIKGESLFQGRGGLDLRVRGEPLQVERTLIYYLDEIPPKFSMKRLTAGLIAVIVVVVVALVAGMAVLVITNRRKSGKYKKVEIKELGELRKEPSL", "experiment": "flow cytometry on CHO-K1-TROP2 cells, Alexa-647 rat anti-human Fc detection"}
{"binder": "CD3×TROP2双特异性抗体 (CD3×TROP2 bispecific antibody) (bispecific antibody, human IgG1, kappa, L234A L235A, Fc carries L234A/L235A; also called CD3×TROP2重组双特异抗体; CD3×TROP2抗体) not shown heavy: QVQLQQSGSELKKPGASVKVSCKASGYTFTNYGMNWVKQAPGQGLKWMGWINTYTGEPTYTDDFKGRFAFSLDTSVSTAYLQISSLKADDTAVYFCARGGFGSSYWYFDVWGQGSLVTVSSASTKGPSVFPLAPSSKSTSGGTAALGCLVKDYFPEPVTVSWNSGALTSGVHTFPAVLQSSGLYSLSSVVTVPSSSLGTQTYICNVNHKPSNTKVDKKVEPKSCDKTHTCPPCPAPEAAGGPSVFLFPPKPKDTLMISRTPEVTCVVVDVSHEDPEVKFNWYVDGVEVHNAKTKPREEQYNSTYRVVSVLTVLHQDWLNGKEYKCKVSNKALPAPIEKTISKAKGQPREPQVCTLPPSREEMTKNQVSLSCAVKGFYPSDIAVEWESNGQPENNYKTTPPVLDSDGSFFLVSKLTVDKSRWQQGNVFSCSVMHEALHNHYTQKSLSLSPGK light: DIQLTQSPSSLSASVGDRVSITCKASQDVSIAVAWYQQKPGKAPKLLIYSASYRYTGVPDRFSGSGSGTDFTLTISSLQPEDFAVYYCQQHYITPLTFGAGTKVEIKRTVAAPSVFIFPPSDEQLKSGTASVVCLLNNFYPREAKVQWKVDNALQSGNSQESVTEQDSKDSTYSLSSTLTLSKADYEKHKVYACEVTHQGLSSPVTKSFNRGEC", "values": [{"measurement": "binding result", "result": "binds"}]}
